Patent US20190359687A1 (Bayer, published 2019)

T1: human glycophorin A on human red blood cells (human, UniProt P02724 20-150)
T1 construct: whole, on cells; also called human GPA; huGPA
T1 sequence (looked up): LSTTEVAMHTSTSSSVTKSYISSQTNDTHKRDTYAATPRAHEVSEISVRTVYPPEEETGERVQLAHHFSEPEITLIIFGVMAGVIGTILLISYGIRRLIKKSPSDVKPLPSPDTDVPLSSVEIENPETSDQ

T2: glycophorin A peptide GP5 (human, biotin at the N-terminus)
T2 construct: Residues 42 to 61 of the human glycophorin A extracellular domain
T2 peptide: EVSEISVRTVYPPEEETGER

B1: TPP-8798 FVIII-scFv fusion protein (other)
chain: DIQLTQSPSFLSASVGDRVTITCRASSSVRYIYWFQQKPGKAPKLLIYATSFRQSGVPSRFSGSGSGTEYTLTISSLQPEDFATYYCHQRNSFPYTFGQGTKLEIKGGGGSGGGGSGGGGSGGGGSEVQLVQSGAEVKKPGASVKVSCKASGYTFTTYAIHWVRQAPGQGLEWMGYINPSSGYTRYNPKFKGRVTMTRDKSTSTAYMELRSLRSDDTAVYYCWTGTRDYWGQGTTVTVSSGGGSGGGGSGLVPRGSGGGSGGGGSGATRRYYLGAVELSWDYMQSDLGELPVDARFPPRVPKSFPFNTSVVYKKTLFVEFTDHLFNIAKPRPPWMGLLGPTIQAEVYDTVVITLKNMASHPVSLHAVGVSYWKASEGAEYDDQTSQREKEDDKVFPGGSHTYVWQVLKENGPMASDPLCLTYSYLSHVDLVKDLNSGLIGALLVCREGSLAKEKTQTLHKFILLFAVFDEGKSWHSETKNSLMQDRDAASARAWPKMHTVNGYVNRSLPGLIGCHRKSVYWHVIGMGTTPEVHSIFLEGHTFLVRNHRQASLEISPITFLTAQTLLMDLGQFLLFCHISSHQHDGMEAYVKVDSCPEEPQLRMKNNEEAEDYDDDLTDSEMDVVRFDDDNSPSFIQIRSVAKKHPKTWVHYIAAEEEDWDYAPLVLAPDDRSYKSQYLNNGPQRIGRKYKKVRFMAYTDETFKTREAIQHESGILGPLLYGEVGDTLLIIFKNQASRPYNIYPHGITDVRPLYSRRLPKGVKHLKDFPILPGEIFKYKWTVTVEDGPTKSDPRCLTRYYSSFVNMERDLASGLIGPLLICYKESVDQRGNQIMSDKRNVILFSVFDENRSWYLTENIQRFLPNPAGVQLEDPEFQASNIMHSINGYVFDSLQLSVCLHEVAYWYILSIGAQTDFLSVFFSGYTFKHKMVYEDTLTLFPFSGETVFMSMENPGLWILGCHNSDFRNRGMTALLKVSSCDKNTGDYYEDSYEDISAYLLSKNNAIEPRSFSQNPPVLKRHQREITRTTLQSDQEEIDYDDTISVEMKKEDFDIYDEDENQSPRSFQKKTRHYFIAAVERLWDYGMSSSPHVLRNRAQSGSVPQFKKVVFQEFTDGSFTQPLYRGELNEHLGLLGPYIRAEVEDNIMVTFRNQASRPYSFYSSLISYEEDQRQGAEPRKNFVKPNETKTYFWKVQHHMAPTKDEFDCKAWAYFSDVDLEKDVHSGLIGPLLVCHTNTLNPAHGRQVTVQEFALFFTIFDETKSWYFTENMERNCRAPCNIQMEDPTFKENYRFHAINGYIMDTLPGLVMAQDQRIRWYLLSMGSNENIHSIHFSGHVFTVRKKEEYKMALYNLYPGVFETVEMLPSKAGIWRVECLIGEHLHAGMSTLFLVYSNKCQTPLGMASGHIRDFQITASGQYGQWAPKLARLHYSGSINAWSTKEPFSWIKVDLLAPMIIHGIKTQGARQKFSSLYISQFIIMYSLDGKKWQTYRGNSTGTLMVFFGNVDSSGIKHNIFNPPIIARYIRLHPTHYSIRSTLRMELMGCDLNSCSMPLGMESKAISDAQITASSYFTNMFATWSPSKARLHLQGRSNAWRPQVNNPKEWLQVDFQKTMKVTGVTTQGVKSLLTSMYVKEFLISSSQDGHQWTLFFQNGKVKVFQGNQDSFTPVVNSLDPPLLTRYLRIHPQSWVHQIALRMEVLGCEAQDLY
notes: The entry is the mature protein; mostly a 2 chain molecule; also called BDD-N scFv; PPB 6705
B2: TPP-9711 FVIII-scFv fusion protein (other)
chain: ATRRYYLGAVELSWDYMQSDLGELPVDARFPPRVPKSFPFNTSVVYKKTLFVEFTDHLFNIAKPRPPWMGLLGPTIQAEVYDTVVITLKNMASHPVSLHAVGVSYWKASEGAEYDDQTSQREKEDDKVFPGGSHTYVWQVLKENGPMASDPLCLTYSYLSHVDLVKDLNSGLIGALLVCREGSLAKEKTQTLHKFILLFAVFDEGKSWHSETKNSLMQDRDAASARAWPKMHTVNGYVNRSLPGLIGCHRKSVYWHVIGMGTTPEVHSIFLEGHTFLVRNHRQASLEISPITFLTAQTLLMDLGQFLLFCHISSHQHDGMEAYVKVDSCPEEPQLRMKNNEEAEDYDDDLTDSEMDVVRFDDDNSPSFIQIRSVAKKHPKTWVHYIAAEEEDWDYAPLVLAPDDRSYKSQYLNNGPQRIGRKYKKVRFMAYTDETFKTREAIQHESGILGPLLYGEVGDTLLIIFKNQASRPYNIYPHGITDVRPLYSRRLPKGVKHLKDFPILPGEIFKYKWTVTVEDGPTKSDPRCLTRYYSSFVNMERDLASGLIGPLLICYKESVDQRGNQIMSDKRNVILFSVFDENRSWYLTENIQRFLPNPAGVQLEDPEFQASNIMHSINGYVFDSLQLSVCLHEVAYWYILSIGAQTDFLSVFFSGYTFKHKMVYEDTLTLFPFSGETVFMSMENPGLWILGCHNSDFRNRGMTALLKVSSCDKNTGDYYEDSYEDISAYLLSKNNAIEPRSFSQNGGGGSTGGTGGSSGGGTGSGGGGTGGSGGTDIQLTQSPSFLSASVGDRVTITCRASSSVRYIYWFQQKPGKAPKLLIYATSFRQSGVPSRFSGSGSGTEYTLTISSLQPEDFATYYCHQRNSFPYTFGQGTKLEIKGGGGSGGGGSGGGGSGGGGSEVQLVQSGAEVKKPGASVKVSCKASGYTFTTYAIHWVRQAPGQGLEWMGYINPSSGYTRYNPKFKGRVTMTRDKSTSTAYMELRSLRSDDTAVYYCWTGTRDYWGQGTTVTVSSGGGGDENQSPRSFQKKTRHYFIAAVERLWDYGMSSSPHVLRNRAQSGSVPQFKKVVFQEFTDGSFTQPLYRGELNEHLGLLGPYIRAEVEDNIMVTFRNQASRPYSFYSSLISYEEDQRQGAEPRKNFVKPNETKTYFWKVQHHMAPTKDEFDCKAWAYFSDVDLEKDVHSGLIGPLLVCHTNTLNPAHGRQVTVQEFALFFTIFDETKSWYFTENMERNCRAPCNIQMEDPTFKENYRFHAINGYIMDTLPGLVMAQDQRIRWYLLSMGSNENIHSIHFSGHVFTVRKKEEYKMALYNLYPGVFETVEMLPSKAGIWRVECLIGEHLHAGMSTLFLVYSNKCQTPLGMASGHIRDFQITASGQYGQWAPKLARLHYSGSINAWSTKEPFSWIKVDLLAPMIIHGIKTQGARQKFSSLYISQFIIMYSLDGKKWQTYRGNSTGTLMVFFGNVDSSGIKHNIFNPPIIARYIRLHPTHYSIRSTLRMELMGCDLNSCSMPLGMESKAISDAQITASSYFTNMFATWSPSKARLHLQGRSNAWRPQVNNPKEWLQVDFQKTMKVTGVTTQGVKSLLTSMYVKEFLISSSQDGHQWTLFFQNGKVKVFQGNQDSFTPVVNSLDPPLLTRYLRIHPQSWVHQIALRMEVLGCEAQDLY
notes: The entry is the mature protein; also called PPB 7816

Experiments:
[1] = molecular target: T3, Cynomolgus monkey glycophorin A on Cynomolgus monkey red blood cells (Cynomolgus monkey); assay: partition to Cyno RBC, human HemA plasma, 60 min;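 note: FVIII fusion spiked at 1 IU/mL into RBC suspension at whole-blood density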
T3 construct: whole, on cells; also called Cyno GPA; Cyno RBC

[2] = molecular target: T3, Cynomolgus monkey glycophorin A on …; assay: partition to Cyno RBC, human HemA plasma, 5 min;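 note: FVIII fusion spiked at 1 IU/mL into RBC suspension at whole-blood density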
[3] = molecular target: T1, human glycophorin A on human red blood …; assay: partition to human RBC, vWF deficient plasma, 5 min
[4] = molecular target: T3, Cynomolgus monkey glycophorin A on …; assay: partition to Cyno RBC, human HemA plasma, 120 min;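 note: FVIII fusion spiked at 1 IU/mL into RBC suspension at whole-blood density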
Experimental: (§1) To evaluate partition to cynomolgus monkey or human red blood cells, whole blood was draw from Cynomolgus monkey or normal human volunteers in to anticoagulant with 4% sodium citrate (Sigma, St Louis, Mo.). The red blood cells were purified by layering the whole blood on to ficoll followed by low speed centrifugation. The supernatant containing plasma, platelets and white blood cells was discarded and the red blood cell pellet was resuspended in 10 pellet volumes of PBS (50 mM Phosphate buffer, pH7.4, 150 mM NaCl). The red blood cells were then pelleted by slow speed centrifugation and the red blood cells re-suspended in 10 volumes of PBS. This washing step was repeated 4 more times and the red blood cells finally resuspended in a volume of plasma from Hemophilia patients with less than 1% of normal levels of FVIII (GeorgeKing Bio-Medical, Overland Park, Kans.) to generate a total volume equal to the initial blood volume such that the RBC density was equal to that of normal whole blood. BDD and RBC targeted FVIII molecules were then spiked into RBC suspension in HemA plasma at 1 IU/mL, and incubated at room temperature for 2-3 hours with gentle rotation. […] An additional control was performed in which BDD or RBC targeted FVIII molecules were added at 11U/ml into the same human hemophilia A plasma and incubated for 5 minutes and 180 mins. These samples were used to determine the input FVIII activity in the presence of plasma which was used to calculate the percentage of the molecule that was bound to RBC. All plasma samples were then assayed together for FVIII activity using the Coatest SP assay (DiaPharma, Columbus, Ohio). The assay was performed following the manufacturer's instructions in a 96-well plate format. […] The plate was incubated at 37° C. for 10 minutes with shaking between each reagent addition.

[5] = molecular target: T1, human glycophorin A on human red blood …; assay: partition to human RBC, vWF deficient plasma, 30 min
[6] = molecular target: T1, human glycophorin A on human red blood …; assay: partition to human RBC, vWF deficient plasma, 120 min
[7] = molecular target: T3, Cynomolgus monkey glycophorin A on …; assay: partition to Cyno RBC, human HemA plasma, 1 min;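 note: FVIII fusion spiked at 1 IU/mL into RBC suspension at whole-blood density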
Experimental: as §1

[8] = molecular target: T1, human glycophorin A on human red blood …; assay: partition to human RBC, vWF deficient plasma, 1 min
[9] = molecular target: T1, human glycophorin A on human red blood …; assay: partition to human RBC, vWF deficient plasma, 60 min
[10] = molecular target: T3, Cynomolgus monkey glycophorin A on …; assay: partition to Cyno RBC, human HemA plasma, 30 min;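 note: FVIII fusion spiked at 1 IU/mL into RBC suspension at whole-blood density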
[11] = molecular target: T1, human glycophorin A on human red blood …; assay: partition to human RBC, vWF deficient plasma, 15 min
[12] = molecular target: T3, Cynomolgus monkey glycophorin A on …; assay: partition to Cyno RBC, human HemA plasma, 15 min;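 note: FVIII fusion spiked at 1 IU/mL into RBC suspension at whole-blood density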
Experimental: as §1

[13] = molecular target: T2, glycophorin A peptide GP5; assay: Octet, GP5 peptide on the probe, fusion protein in solution, 1:1 fit

% bound to Cyno RBC [1] [%]	% bound to Cyno RBC [2] [%]	percentage bound to human RBC [3] [%]	% bound to Cyno RBC [4] [%]	percentage bound to human RBC [5] [%]	percentage bound to human RBC [6] [%]	% bound to Cyno RBC [7] [%]	percentage bound to human RBC [8] [%]	percentage bound to human RBC [9] [%]	% bound to Cyno RBC [10] [%]	percentage bound to human RBC [11] [%]	% bound to Cyno RBC [12] [%]	Kd [13] [nM]	koff [13] [s⁻¹]	kon [13] [M⁻¹ s⁻¹]	Binder
-19.1	-21.9	92.5	2.9	95.7	95.7	0	76.5	95.8	-8.7	95.2	-7.8	4	0.00329	823000	B1
80.2	63	85.3	81.8	87	86.3	40.6	76.2	88.7	74.2	87	72.1	–	–	–	B2
